# According to the supplement of paper PMC9170038:
# Tested on: MS2 coat protein
# Assay: apparent KD of MS2 coat protein, switch ON state; designed switch direction (-1 OFF switch, 1 ON switch): 1; higher = weaker reporter binding
# Conditions: FMN input: 0 or 200 uM; Eterna round: R93 (includes R88 designs)
# In short: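 For every design, apparent KD is the median of normalised binding-curve fits from its clusters. The RNA switches were transcribed on-chip from Illumina sequencing clusters and titrated with SNAP-549-labelled MS2 coat protein (twofold steps, 0.7 or 1.5 nM to 3 µM; 0.8–1.5 h to 10–20 min per step). Titrations used 100 mM Tris-HCl pH 7.5, 80 mM KCl, 4 mM MgCl2, without or with constant ligand.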
row,Sequence,apparent KD of MS2 coat protein
1,AAAAGACAUGAGGAUCACCCAUGUGAAAACGUAGGAGGAUAUGUCGUGAAAAAAGACUUGGCAGAAGGCCUGUGUC [SS1 - 43],47 nM
2,UAUAAACAUGAGGAUCACCCAUGUAGAAAUAUGGGAGGAUAUACAAAGACGAAAGUCAAAGUAGAAGGCCUAAUAU [Mat - Same State 1 - Mod - D155],18.9 nM
3,UGGAGACAUGAGGAUCACCCAUGUGAGAAGAGGCGAGGAUAUCGAAAGAAAGAAGAGAAACGAGAAGGCGCGAGCA [salish99-SS1-040],25.9 nM
4,UCAGAACCGACAAAGGAUAUAGCGGGUGAGACAUGAGGAUCACCCAUGUAUGCAGAACUCAUCCUCUAGAAGGUUGAGACGGAUA [Maedanon],213 nM
5,AAAAAACAUGAGGAUCACCCAUGUGAGAACAUGGGAGGAUAUACGAAGACGAAAGUCGAAGUAGAAGGCCUAAAAG [Garnet 79],994 nM
6,GGAAAACAUGAGGAUCACCCAUGUUAGUGUCAUUAAGGAUAUGGGCUUAAGAAUUUGAGACUAGAAGGUGAUGCGC [Soisla],21.8 nM
7,AAUACACAUGGUCAGGAUAUCGCAGCUAGGACAUGAGGAUCACCCAUGUCGCACGUAACCGUAACCGAGAAGGGACAGGGUGACC [JR_SS002_Sub409],36.9 nM
8,AACUACAUUAUGAAGGAUAUCCACAUCAAGACAUGAGGAUCACCCAUGUAAACUUAGAACAUACAGGAGAAGGUCAAGGGUGAAU [JR_SS002_Sub1206],234 nM
9,AAUAAUUAUACGAAGGAUAUCGGUAAUUAGACAUGAGGAUCACCCAUGUAAUAAGGUUAAAUAAACGAGAAGGUCGAGGGUGAAA [JR_SS002_Sub501],66.9 nM
10,AGAAAUAAAGGAGAGGAUAUCCAAAAGAAAACAUGAGGAUCACCCAUGUAAAAGAAAAUAAAAUGGGAGAAGGCUUCAAAUAAGA [Starry modified V4],52.3 nM
11,AGAAAUAAAAGAGAGGAUAUCUCAAAGAAAACAUGAGGAUCACCCAUGUAAAAGAAAAUAAAAUGGGAGAAGGCUCAUAAUAAAG [JL Skelter Mod 5 In the Red],54.3 nM
12,GUCCAACAUGAGGAUCACCCAUGUGCAUGACACUGAGGAUAUGGGACUAAAGGUGCUGGACCAGAAGGCAGAAGAA [Diatquorbi],48.3 nM
13,AACAAUCUAUCUGAGGAUAUCAUGUCAAAGACAUGAGGAUCACCCAUGUGCAGGAAAACUGCUCAUGAGAAGGCAGAUAGAUUGA [SS2: 1110],464 nM
14,AGAAAACAUGAGGAUCACCCAUGUAGAAAUAUGGGAGGAUAUACGAAGACGAAAGUCAAAGUAGAAGGCCUAAAGA [Mat - Same State 1 - Eli mod - D101],23.6 nM
15,GACUGACAUGAGGAUCACCCAUGUAUUCAAACAUGAGGAUAUAUAACACGUCAUCGACGGAUAGAAGGCAUAGAUG [JR_SS001_Sub1209],117 nM
16,AGCAUGCGAUAUAAGGAUAUGUUGUUUGCAACAUGAGGAUCACCCAUGUUUGAGGCUGAAAAGCAGCAGAAGGUAUAUACAAGCA [SS2-1.0],9.45 nM
17,AAGAAAAAAAGGCAGGAUAUCCAAAAAAAAACAUGAGGAUCACCCAUGUAAAAAUAAAAAAAAUGGGAGAAGGGCCAAAAAAGAA [Mat - Same State 2 - Mod - 154],13.8 nM

row,Sequence,apparent KD of MS2 coat protein
1,GGAGCCGGUACUGAGGAUAUUCAUAUUAAAACAUGAGGAUCACCCAUGUAGGCCAGAAGGCCUUGGGAGAAGGCAGAUCGGCUCC [Biceusra],20.4 nM
2,GUGGCGCAGGUACAGGAUAUGUUUCUCGUAACAUGAGGAUCACCCAUGUACCUAUGAGAUUAAAUGCAGAAGGGUGCACGCCACG [Inedor],41.1 nM
3,ACUUCACAUGAGGAUCACCCAUGUCAGGCCGGACUAGGAUAUUAUCAUGCAGCGUAACCAUAAGAAGGAGUAGGAA [JR_SS001_Sub314],136 nM
4,ACUACACAUGAGGAUCACCCAUGUCAGGUGGGACUAGGAUAUUAUAAACCAGAGUAAUUAUAAGAAGGAGUAGAAA [JR_SS001_Sub307],32.6 nM
5,AAAAAACAUGAGGAUCACCCAUGUAAAAAAAUGGGAGGAUAUACAAAGACGAAAGUCAAAGUAGAAGGCCUGAAAA [same state 4],29.8 nM
6,AAAAGACAUGAGGAUCACCCAUGUCAAAACGUAGGAGGAUAUGUAUGGAAAACAUGCUGUACAGAAGGCCUGUGUC [SS1 - 28],14.2 nM
7,AAGAAACAUGAGGAUCACCCAUGUAGAAAUAUGGGAGGAUAUACAAGGACGUAAGUCAAGGUAGAAGGCCUAAGAA [Mat - Same State 1 - Meechl mod - D135],26 nM
8,AAAAGACAUGAGGAUCACCCAUGUAAAGACGUAGGAGGAUAUGUCGUGAAAAAAGACUUGGCAGAAGGCCUGUGUC [SS1 - 40],21.4 nM
9,AAAGACACAGUGCAGGAUAUAGUAAUAGUCACAUGAGGAUCACCCAUGUUCUUUUAUAAGAACGAUUAGAAGGGCGGUGAAAAAA [SameState2 Malc#11],161 nM
10,GUGGUGCAGGUACAGGAUAUGUUGCUCGUAACAUGAGGAUCACCCAUGUACCUAUGAGAUUAAAUGCAGAAGGGUGCACACCACG [Edtiditele],28.4 nM
11,GAAAAACAUGAGGAUCACCCAUGUGAGAAUAUGGAAGGAUAUACAAAGACGAAAGUCAAAGUAGAAGGUCUAAAAG [Mat - Same State 1 - Eli mod - D15],28.9 nM
12,"AAGAAACAUGAGGAUCACCCAUGUAAGAAUAUGGGAGGAUAUGCGAAAAGAAACAAAGAAGCAGAAGGCCUAAGAA [75%, Ex5 sub 1, 5]",26.6 nM
13,CGUGAACAUGAGGAUCACCCAUGUGAAAAACAUAGAGGAUAUGUCGCGUGAGUGCAAAAGACAGAAGGCUAUCGUG [Mod 4 of Round 1 starryjess' Mod pf Nando],19.9 nM
14,UAAAAACAUGAGGAUCACCCAUGUGAAAAUAUGGGAGGAUAUACAAAGACGAGAGUCAAAGUAGAAGGCCUAAAAU [Mat - Same State 1 - Eli mod - D88],15.7 nM
15,GCCUAACAUGAGGAUCACCCAUGUAGUGGGUUGUUAGGAUAUGGACCGCAAAACACGGUACCAGAAGGAAUAGAAA [Tiquleraat],448 nM
16,AAAAAACAUGAGGAUCACCCAUGUGAAAAUAUGGGAGGAUAUACAAACACGAAAGUGAAAGUAGAAGGCCUAAAAA [SS! MT 16],19.7 nM
